For orientation: stoichiometry N means the number of molecules, sites or subunits per partner or assembly.

This test deals with C-terminal hydrophilic (cytoplasmic) domain of non-structural protein 4 from mouse hepatitis virus strain A59, wild type (mouse hepatitis virus strain A59). The test can be described thus: SEC; Superdex75, 50 mM Tris-Cl pH 8.5, 300 mM NaCl (legend: 150 mM NaCl), no reducing agent, 0.5 mL/min; calibrated with marker proteins. For orientation: In gel filtration, larger molecules generally elute earlier.

For “C-terminal hydrophilic (cytoplasmic) domain of non-structural protein 4 from mouse hepatitis virus strain A59, wild type (domain or fragment)”, the stoichiometry N was found to be 2.

For the origin of these results see PMC2703826.
